# Measurements reported in publication PMC4621360 (eLife, 2015).
# Target: T1, FG-N, MGT-Nsp1(48–172)-… (S. cerevisiae)
# T1 construct: added N-terminal residues; Nsp1, FG nucleoporin, N-terminal Asn-rich segment of low charge with irregularly spaced FG repeats, residues 48-172; Isotope-labelled for NMR; source: E. coli BL21DE3 Gold, purified (8 M urea throughout, Talon resin); also observed inside living E. coli
# Test: NMR titration; HSQC test of reversibility in buffer A; FG-N 50 μM, Kap95 added to 25 μM, then diluted with more FG-N
# Conditions: both partners purified
binder,measurement,value
"Kap95 (natural protein, S. cerevisiae, Kap95, nuclear transport factor; also called TF; transport factor; source: prepared as previously described (Tetenbaum-Novatt et al., 2012)) MSTAEFAQLLENSILSPDQNIRLTSETQLKKLSNDNFLQFAGLSSQVLIDENTKLEGRILAALTLKNELVSKDSVKTQQFAQRWITQVSPEAKNQIKTNALTALVSIEPRIANAAAQLIAAIADIELPHGAWPELMKIMVDNTGAEQPENVKRASLLALGYMCESADPQSQALVSSSNNILIAIVQGAQSTETSKAVRLAALNALADSLIFIKNNMEREGERNYLMQVVCEATQAEDIEVQAAAFGCLCKIMSLYYTFMKPYMEQALYALTIATMKSPNDKVASMTVEFWSTICEEEIDIAYELAQFPQSPLQSYNFALSSIKDVVPNLLNLLTRQNEDPEDDDWNVSMSAGACLQLFAQNCGNHILEPVLEFVEQNITADNWRNREAAVMAFGSIMDGPDKVQRTYYVHQALPSILNLMNDQSLQVKETTAWCIGRIADSVAESIDPQQHLPGVVQACLIGLQDHPKVATNCSWTIINLVEQLAEATPSPIYNFYPALVDGLIGAANRIDNEFNARASAFSALTTMVEYATDTVAETSASISTFVMDKLGQTMSVDENQLTLEDAQSLQELQSNILTVLAAVIRKSPSSVEPVADMLMGLFFRLLEKKDSAFIEDDVFYAISALAASLGKGFEKYLETFSPYLLKALNQVDSPVSITAVGFIADISNSLEEDFRRYSDAMMNVLAQMISNPNARRELKPAVLSVFGDIASNIGADFIPYLNDIMALCVAAQNTKPENGTLEALDYQIKVLEAVLDAYVGIVAGLHDKPEALFPYVGTIFQFIAQVAEDPQLYSEDATSRAAVGLIGDIAAMFPDGSIKQFYGQDWVIDYIKRTRSGQLFSQATKDTARWAREQQKRQLSL",binding result,binds
